Measured values taken from paper PMC5402979, “Tissue-specific enhancer repression through molecular integration of cell signaling inputs”.

Key:
GST-BowlZF = GST-BowlZF (UniProt Q9VQU9 220-382); test: EMSA; EMSA, 6% native polyacrylamide, 32P probes; buffers as in cited refs 22 (Bowl) and 26 (HD), not stated here; conditions: protein: recombinant, tags: GST (N-term, pGex4T)
GST-C15HD [1] = molecular target: T1, GST-C15HD (Drosophila melanogaster, UniProt Q4V729 192-292); test: EMSA; up to three complexes; EMSA, 6% native polyacrylamide, 32P probes; buffers as in cited refs 22 (Bowl) and 26 (HD), not stated here; conditions: protein: recombinant; tags: GST (N-term, pGex4T); label: 32P (Klenow dCTP)
T1 sequence (Q4V729 entry or part of it): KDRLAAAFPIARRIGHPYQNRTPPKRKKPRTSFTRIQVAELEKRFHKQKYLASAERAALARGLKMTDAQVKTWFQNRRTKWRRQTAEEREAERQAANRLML

GST-C15HD [2] = molecular target: T1, GST-C15HD; test: EMSA; equivalent to CR1; EMSA, 6% native polyacrylamide, 32P probes; buffers as in cited refs 22 (Bowl) and 26 (HD), not stated here; conditions: protein: recombinant; tags: GST (N-term, pGex4T); label: 32P (Klenow dCTP)
GST-C15HD [3] = molecular target: T1, GST-C15HD; test: EMSA; EMSA, 6% native polyacrylamide, 32P probes; buffers as in cited refs 22 (Bowl) and 26 (HD), not stated here; conditions: protein: recombinant; tags: GST (N-term, pGex4T); label: 32P (Klenow dCTP)
GST-DllHD = GST-DllHD (UniProt P20009 120-188); test: EMSA; strictly monomeric; abolished by increasing GST-C15HD; EMSA, 6% native polyacrylamide, 32P probes; buffers as in cited refs 22 (Bowl) and 26 (HD), not stated here; conditions: protein: recombinant; tags: GST (N-term, pGex4T); label: 32P (Klenow dCTP)
Chain of GST-DllHD (P20009 120-188): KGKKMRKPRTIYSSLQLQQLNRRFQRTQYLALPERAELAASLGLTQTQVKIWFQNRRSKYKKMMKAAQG

GST-C15HD [4] = molecular target: T1, GST-C15HD; test: EMSA; monomeric and some dimeric complexes; displaces DllHD dose-dependently; EMSA, 6% native polyacrylamide, 32P probes; buffers as in cited refs 22 (Bowl) and 26 (HD), not stated here; conditions: protein: recombinant; tags: GST (N-term, pGex4T); label: 32P (Klenow dCTP)

Chain of GST-BowlZF (Q9VQU9 220-382): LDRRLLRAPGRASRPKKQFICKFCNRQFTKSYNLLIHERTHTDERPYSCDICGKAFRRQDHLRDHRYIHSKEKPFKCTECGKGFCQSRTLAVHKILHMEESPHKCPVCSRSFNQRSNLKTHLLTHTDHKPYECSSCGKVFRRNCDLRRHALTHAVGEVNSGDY

B1: 1Sm (dsDNA)
DNA 1: TACAATTTAAGCCGTC
DNA 2: GACGGCTTAAATTGTA
GST-BowlZF; label: 32P (Klenow dCTP)
  binding result: no binding

B2: CR1 (dsDNA)
DNA 1: TTAAGCTGCAAATCGCGGCAATCGTTAAGATCACGAAAAACAATTCAAAATTAATGGTAATAAGCAGTT
DNA 2: AACTGCTTATTACCATTAATTTTGAATTGTTTTTCGTGATCTTAACGATTGCCGCGATTTGCAGCTTAA
GST-C15HD [1]
  binding result: binds

B3: CR1DBSm (dsDNA)
DNA 1: TTAAGCTGCAAATCGCGGCAATCGTTAAGATCACGAAAAACAATTCAAACCCCATGGCCCCAAGCAGTT
DNA 2: AACTGCTTGGGGCCATGGGGTTTGAATTGTTTTTCGTGATCTTAACGATTGCCGCGATTTGCAGCTTAA
GST-C15HD [2]
  binding result: binds

B4: DBS (Dll-binding sequence) (dsDNA)
DNA 1: TCAAAATTAATGGTAATAAGCA
DNA 2: TGCTTATTACCATTAATTTTGA
GST-C15HD [3]
  binding result: no binding

B5: OddZF BS (dsDNA)
DNA 1: GCATACAGTAGCACTGATAT
DNA 2: ATATCAGTGCTACTGTATGC
GST-BowlZF; label: 32P 5' end (Klenow, one dCTP)
  binding result: binds

B6: 2Sm (dsDNA)
DNA 1: AAATTTTAGTCCCAG
DNA 2: CTGGGACTAAAATTT
GST-BowlZF; label: 32P (Klenow dCTP)
  binding result: no binding

B7: 1L+ (CR2 large) (dsDNA)
DNA 1: TACAACAGAAGCCGTCTGGC
DNA 2: GCCAGACGGCTTCTGTTGTA
GST-BowlZF; label: 32P (Klenow dCTP)
  binding result: binds

B8: CR1S3+4+6m (dsDNA)
DNA 1: TTAAGCTGCAAATCGCGGCGGGCGCCCCGATCACGCCGGGCGGTTCGGGATTAATGGTAATAAGCAGTT
DNA 2: AACTGCTTATTACCATTAATCCCGAACCGCCCGGCGTGATCGGGGCGCCCGCCGCGATTTGCAGCTTAA
GST-C15HD [3]
  binding result: no binding

B9: 1Lm (dsDNA)
DNA 1: TACAATTTAAGCCGTAAAGC
DNA 2: GCTTTACGGCTTAAATTGTA
GST-BowlZF; label: 32P (Klenow dCTP)
  binding result: no binding

B10: CR1 3' half (dsDNA)
DNA 1: CACGAAAAACAATTCAAAATTAATGGTAATAAGCAGTT
DNA 2: AACTGCTTATTACCATTAATTTTGAATTGTTTTTCGTG
GST-DllHD
  binding result: binds
GST-C15HD [4]
  binding result: binds
